Test results: the nanobody polyreactivity screen of Harvey et al. (2022)

Assay: yeast display, Sf9 membrane polyspecificity reagent, FACS + sequencing; frameworks hold sequencing errors
Outline: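 Galactose induction of a Saccharomyces cerevisiae BJ5465 synthetic nanobody display library ran 36–48 hours. The cells were then stained for 1 hour at 4 °C with 10% biotinylated, detergent-solubilized Sf9 membrane reagent, pulled down on streptavidin microbeads and FACS-sorted into low and high (top ~1%) gates on expression and reagent-binding fluorescence. Labels for polyreactivity follow the gate of origin.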

| Sequence | polyreactivity (PSR sort gate) |
| --- | --- |
| QVQLVESGGGLVQAGGSLRLSCAASGLIFNTYAMGWYRQARGKERELVAAITDGGGTNYADSVKGRFTISRDNAKNTVYLQMNSLKPEDTAVYYCAARLASWPLTYDFQWYEYWGQGTQVTVSS | low polyreactivity |
| QVQLVESGGGLVQAGGSLRLSCAASGLIFPGYAMGWYRQAPGKERELVAAIDWSGGSTYYADSVKGRFTISRDYAKNTVYLQMNSLKPEDTAVYDCNADGYLSYAFDYWGQGTQVTVSS | low polyreactivity |
| QVQLVESGGGLVQAGGSLRLSCAASGLIFPRYAMGWYRQAPGKETELVAAISRSGGNTYYADSVKGRFTISRDNAKNTVYLQINRLKPEDTAVYYCAAYLKVRSPRDGYDYWGQGTQVSVSS | high polyreactivity |
| QVQLVESGGGLVQAGGSLRLSCAASGLIFPSYAMGWYRQAPGKERELVAGINSGGSTNYADSVKGRFTISRDNAKNTVYLQMNSLKPEDTAVYYCAKDNNYYWYVSPRDYWGQGTQVTVSS | low polyreactivity |
| QVQLVESGGGLVQAGGSLRLSCAASGLIFPSYTMGSYRQAPGKERELVAAITFSGDSTNYADSVKGRFTISRDNAKNTVYLQMNSLKPEDTAVYYCAAETITYGFDGDYWGQGTQVTVSS | low polyreactivity |
| QVQLVESGGGLVQAGGSLRLSCAASGLIFQYYAMGWYRPAPGKERELVAAISSDGNTYYADSVKGRFTISRDNAKNTVYLQMNSLKPEDTAVYYCAADWYIAYSEYGYWGQGTKVTVSS | low polyreactivity |
| QVQLVESGGGLVQAGGSLRLSCAASGLIFQYYAMGWYRQAPGKERELVAGITSGANTNYADSVKGRFTISRDNAKNTVYLQMNSLKPEDTAVYYCATYVSSPYSDIWFKDFDYWGQGTQVTVSS | low polyreactivity |
| QVQLVESGGGLVQAGGSLRLSCAASGLIFRFNAMGWYRQAPGKERELVAAITRAGSTYYADSVKGRFTISRDNAKNTVYLQMNSLKPEDTAVYYCAAGQYRLPQRGYGYWGQGTQVTVSS | high polyreactivity |
| QVQLVESGGGLVQAGGSLRLSCAASGLIFRGYAMGWYRQAPGKERELVAAISGSGVTTYYADSVKGRFTISRDYAKNSVYLQMNCLKPEDTAVYYCAASTRYEGNYWGQGTQVTVSS | high polyreactivity |
| QVQLVESGGGLVQAGGSLRLSCAASGLIFRHYVMGWYRQAPGKERELVAAITSRGGTTYYADSVKGRFTISRDNAKNTVYLQMNSLKPEDTAVYYCNVVQNSRHGYTSYYWGQGTQVTVSS | high polyreactivity |
| QVQLVESGGGLVQAGGSLRLSCAASGLIFRPYAMGWYRQAPGQERELVAAITSGGSTDYADSVKGRFTISRDNAKNTVYLQMNSLKPEDTAVYYCNADIYPPDGYPWQGDYDYWGQGTQVTVSS | low polyreactivity |
| QVQLVESGGGLVQAGGSLRLSCAASGLIFRPYTMGWYRQAPGKERELVATISGSGASTNYADSVNGRFTISRDNAKNTVYLQMNSLKPEDTAVYYCKGRCYSRMYYWGQGTQVTVSS | high polyreactivity |
| QVQLVESGGGLVQAGGSLRLSCAASGLIFRRNAMGWYRQAPGKERELVAAISWSGGSTYYADSVKGRFTISRDNAKNTVYLQMNSLKPEDTAVYYCNRGGFSRYYYWGHGTQVTVSS | low polyreactivity |
| QVQLVESGGGLVQAGGSLRLSCAASGLIFRRYAMGWYRQAPGKERELVAVISSGGRTYYADSVKGRFTISRDNAKNTVFLQMNSLKPEDTAVYYCAARTRSYWGTYGSYHYDYWGQGTQVTVSS | high polyreactivity |
| QVQLVESGGGLVQAGGSLRLSCAASGLIFRRYVMGWYRQAPGKERELVAAITSRGTRTYYADSVKGRFTISRDNAKNTVYLQMNSLKPEDTAVYYCNAQIYTYRTGRGYSRMDYWGQGTQVTVSS | high polyreactivity |
| QVQLVESGGGLVQAGGSLRLSCAASGLIFRSNAMGWYRQAPGKERELVAAISGSGGRTYYADSVKGRFTISRDNANNTVYLQMNSLKPEDTAVYYCAGRWSYRQNGYWGQGTQVTVSS | high polyreactivity |

| Sequence | polyreactivity (PSR sort gate) |
| --- | --- |
| QVQLVESGGGLVQAGGSLRLSCAASGLIFRYSGMGWYRQATGKERELVAAIRWSAGSTYYADSVKGRFTISRDNAKNTVYLQMNSLKPEDTAVYYCAARAPVAGYKYRYDYWGQGTQVTVSS | high polyreactivity |
| QVQLVESGGGLVQAGGSLRLSCAASGLIFRYYAMGWYRQAPGKERELVAAISLRGGSTYYADSVKGRFTISRDNAKNTVYLQMNSLKPEDTAVYYCAAQWAAFSVANQYGYWGQGTQVTVSS | high polyreactivity |
| QVQLVESGGGLVQAGGSLRLSCAASGLIFRYYAMGWYSKAPGKERELVAVINYSGGRTYYADSVKGRFTISRDNAKNTVYLQMNSLKPEDTAVYYCAASFASKYEYWGQGTQVTVSS | high polyreactivity |
| QVQLVESGGGLVQAGGSLRLSCAASGLIFRYYAMGWYSQAPGKEREFVAAISGPGASTYYADSVKGRFTISRDNAKNTVYLQMNSLKPEDTAVYYCNTLLTYGYDYWGQGTQVTVSS | high polyreactivity |
| QVQLVESGGGLVQAGGSLRLSCAASGLIFSGYAMGWYRQAPGKERELVAAISTRGGSTFYADSVKGRFTISRDNAKNTVYLQMNSLKPEDTAVYYCAADGAGGYYYWGQGTQVTVSS | high polyreactivity |
| QVQLVESGGGLVQAGGSLRLSCAASGLIFSKNVMGWYRQAPGKERELVAAISQRGGSTYYADSVKGRFTISRDNAKNTVYLQMNSLKPEDTAVYYCAADNTVSHEDYWGQGTQVTVSS | high polyreactivity |
| QVQLVESGGGLVQAGGSLRLSCAASGLIFSPYAMGWYRQAPGKERELVAAITWSGGSTYYADSVKGRFTISRDNAKNTVYLQMNSLKPEDTAVYYCNAVTTRLALYDYWGQGTQVTVSS | high polyreactivity |
| QVQLVESGGGLVQAGGSLRLSCAASGLIFSQNAMGWYRQAPGKERELVARITLSGTSTYYADSVKGRFTISRDNAKNTVYLQMNSLKPEDTAVYYCNTRSYSYYVPYRYDYWGQGTQVTVSS | high polyreactivity |
| QVQLVESGGGLVQAGGSLRLSCAASGLIFSQNAMGWYRQAPGKERELVARITWSGTSTYYADSVKGRFTISRDNAKNTVYLQMNSLKPEDTAVYYCAADRPRGRETVDYWGQGTQVTVSS | high polyreactivity |
| QVQLVESGGGLVQAGGSLRLSCAASGLIFSRNAMGWYRQAPGKERELVAAISGGGGSTYYADSVKGRFTISRDNAKNTVYLQMNSLKPEDTAVYYCAAKGYWWRTPWIATYDYWGQGTQVTVSS | high polyreactivity |
| QVQLVESGGGLVQAGGSLRLSCAASGLIFSRYTMGWYRQPPGKERELVAAISSDGSTYYADSVKGRFTISRDNAKNTVYLQMNSLKPEDTAVYYCAARYWVGGRDRYDSWGQGTQVTVSS | high polyreactivity |
| QVQLVESGGGLVQAGGSLRLSCAASGLIFSRYVMGWYRQAPGKERELVAAISRSGGSTYYADSVKGRFTISRDIAKNTVYLQMNSLKPEDTAVYYCNAGRRTGRYGYWGQGTQVTVSS | high polyreactivity |
| QVQLVESGGGLVQAGGSLRLSCAASGLIFSTNDMGWYRQAPGKERELVAAITSDVSTYYADSVKGRFTISRDNAKNTVYLQMNSLEPEDTAVYYCAKDDSGYINWRYDYWGQGTQVTVSS | low polyreactivity |
| QVQLVESGGGLVQAGGSLRLSCAASGLIFSTYYMGWYRQAPRKERELVAAISTGGSTYCADSVKGRFTISRDNAKNTVYLQMNSLKPEDTAVYYCAAGYTYHSWPLYYWDYNYWGQGTQVTVSS | low polyreactivity |
| QVQLVESGGGLVQAGGSLRLSCAASGLIFSYNDMGWYRQAPGKERELVASISNGGSTNYADSVKGRFTISRDNAKNTVYLQMNSLKPEDTAVYYCAAEGALGEVYWWNVRRYYWGQGTQVTVSS | low polyreactivity |
| QVQLVESGGGLVQAGGSLRLSCAASGLIFTAYAMGWYRQAPGKERELVAAIDWRGGSTSYADSVKGRFTISRDNAKNTVYLQMNSLKPEDTAVYYCAADYYSKYVRFGYWGQGTQVTVSS | high polyreactivity |
